# Data from the nanobody polyreactivity screen of Harvey et al. (2022).
# Assay: yeast display, Sf9 membrane polyspecificity reagent, FACS + sequencing; frameworks hold sequencing errors
# How it was run: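 A synthetic nanobody library was expressed on Saccharomyces cerevisiae BJ5465 by galactose induction for 36–48 hours. The library was stained for 1 hour at 4 °C with 10% biotinylated, detergent-solubilized Sf9 membrane reagent and enriched with streptavidin microbeads before FACS. Low and high (top ~1%) gates were set on anti-HA fluorescence for expression and streptavidin fluorescence for reagent binding, and each polyreactivity label reflects the gate of origin.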
row,Sequence,polyreactivity (PSR sort gate)
1,QVHIVESGGGLVQAGGSLRLSCAASGINFGRNVMGWYRQPPGKERELVAAISWSGGRTYYADSVKGRFTISRDNAKNTVYFQIKSLITEDTAVYDCNARTGYYTGQYDYWGQGSQVTVSS,high polyreactivity
2,QVHLVESGGGLVQAGGSLRLSCAASGSIFGRYAMGWYRQAPGKERELVANITSGDSTNYADSVKGRFTISRDNAKNTVYLQMNSLKPEDTAVYYCAAYRIGQYDYWGQGTQVTVSS,high polyreactivity
3,QVQLVESGGGLVQAGGSLRLSCAASGLTFYYNAMGWYRQAPGKERELVAAISFSGGRTYYADSVKGRFTISRDNAKNTVYLQMNSLKPEDTAVYYCAADWVRNWYTSGSWGQGTQVTVSS,high polyreactivity
4,QVQLVESGGGLVQAGGSLRLSCAASGSIFDYYAMGWYRQAPGQERELVAAISVRGGSTYYADSVKGRFTISRDNANNTVYLHKNSLKPEDTAVYYCAADYAYNKYLSVEYWGQGTQVTVSS,low polyreactivity
5,QVQLVESGGALVQAGGRLRLSCAASVYIQHKYAMGRYRQAPGKERDLVATISGGGGSTYYADSVKGRFTISRDNAKNTVYLQMNSLKPEDTSVYYCAKEYPWLPRSYEYWGQGTQVTVSS,low polyreactivity
6,QVQLVESGGGLVQAGGSLRLSCAASGSSFNSYAMGWYRQAPGKERELVASITRGGSTYYADSVKGRFTISRDNAKTTVYLQMNSLKPEDTAVYYCAARFTQHNYWAMDYRGQGTQVTVSS,high polyreactivity
7,QVQLVESAGVLVQAGGRLRLICAACGSIFDYYSLGWYRQAPGKEREMVDTISGGGGTTYYADSVKGRFTISRDNAKNSVYVHMNSLKPEDTAVYYCAADSLGYKYWGQGTQVTVSS,low polyreactivity
8,QVQLVESGGGLVQAGGSLRLSCAASGRTFIGNAMGWYRQAPGKERELVAGISYRGGSTYYADSVKGRFTISRDNAKNTVYLQMNSLKPEDTAVYYCAAPGRGGYYYWGQGTQVTVSS,high polyreactivity
9,QVQIVESGGGLFQAGGSLRLSCAASGRIFDPYSMGWYRQAPGKERELVASISWSGGRTYYADSVKGRFTISRDNAKNTVYLQMNSLKPEDTAVYYCARRFYKGTSKTNLFDFWGQVTQVTVSS,high polyreactivity
10,QVQLVESGGGLVQAGGSLLLSCAASGSIFYRYAMGWDRQAPGKERELVAAISWNGGTTYYADSVKGRFTISRDNAKNTVYLQMNSLKPEDTAVYYCAADRPTSVYLFDYWGQGTLVTVSS,high polyreactivity
11,QVQLVESGGGLVQAGGSLRLSCAASGSTFILKAMGWYRQAPGKERELVATISSSDTSPYYADSVKGRFTISRDTAKNTVYLQMNSLKPEDTAVYYCNADYYTTSYLQRVYHYGVDYDYWGQGTQVTVSS,low polyreactivity
12,QVQRVESGGGLVQAGASLRLSCSASGSTFYSNAMGWYRQAPGKERELVAAISGSGGRTYYADSVKGRFTISRDNEKKTVYLQMNSLKPEETAVYFCAVERTRSMGYWGQGTQVTVSS,high polyreactivity
13,QVQLVESGGGLVQAGGSLRLSCAASGSTIDTYAMGWYRQAPGKERELVAAIRYTGGRTYYADSVKGRCTISSDNAKNTVYLHMNSLKPEDTAVYYCNADGTKWVRETYDYWGQGTQVTVSS,low polyreactivity
14,QVQLVESGGGLVQAGGSLRLSCAASGRIFYGNARGWYRQAPGKERELVATISSSGGRTPYADSVKGRFTISRDNAKNTVYLQMNSLKPEDTAVYYCAAQGYWTGYDYWGQGTQVTVSS,high polyreactivity
15,QVQLVESGGGLVQAGGSLRLSCAASGSIFGKNAMGWYRQAPGKEREFVAAITNTGGDTYYADSVKGRFTISRDNAKNNVYLQMNSLKPEDTAVYYCNARKRKTSLYKFNYWGQGTQVTVSS,high polyreactivity
16,QVQLVESGGGLVQAGGSLRLSCAASGRTFYLYTMGWYRQAPGKERELVAAISRGGRTYADSVKGRFTISRDNAKNTVYLQMNSLKPDDTAVYYCAAESVYHGWSYQHGKGDYWGQGTQVTVSS,low polyreactivity
17,QVQLVESGGGLVQAGGSLRLSCAASGRIFRQYAMGWYRQAPGKERELVAAITSGGSTNYADSVKGRFTISRDNAKNTVYLQMNSLKPEDTAVYYCNAAGGTRSGVQYDYWGQGTQVTVSS,low polyreactivity
18,QVQLVESGGGLVQAGGSLRLSCAASGRIFYFNAMGWYRQAPGKERELVAAISGSGGDTYYADSVKGRFTISRDNAKNTVYLQMNSLNPEDTAVYYCAAEVYTWGQGTQVTVSS,low polyreactivity
19,QVQLVESGGGLVQAGGSLRLSCAASGFTFPVYAMGWYRQATGKVRELVAAISRRGGRTYYADSVKGRFTISRDNAKNTVSLQMNSLKPEDTAVYYCNKGETLYGSVPYDYWGQGTQVTVSS,high polyreactivity
20,QVQLVESGGGLVQAGGSLRLSCAASGSTFNRYAMGWYRQEPGTERELVASIRISGGSTYYADSVKGRFTISRDNAKNTVYLQMNSLKPEDTAVYYCNAKLFIRWFTYDFLGQGTQVTVSS,low polyreactivity
21,QVQLEESGGGLVQAGGSLRLSCAASGSIFKFYAMGWYRQAPGKEREFVAAIRQSGGRTYYADSVKGRFTISRDNAKNTVYLPMNSLKPEDTAVYYCAADGYYWEYYYWGQGTQVTVSS,high polyreactivity
22,QVQLVESGGGLVQAGGSLRLSCADSGRIFVLYAMGWYRQAPGKERELVAAISRSSTSTYYADSVKGRFTISRDNAKNTGYLQMNSLKPEDTAVYYCAARGRYAYPRYGYYPVNYWGQGTQVTVSS,high polyreactivity

row,Sequence,polyreactivity (PSR sort gate)
1,QVQLVESGGCLVQAGGSLRLSCAASGFTFGRNYMGWYRQAPGKEREFVASISGSGGRTYYADSVKGRFTISRDNAKNTVYLQMNSLQPEDTAVYYCAAYRYSAYLYWDEYGGQGTQVTVSS,high polyreactivity
2,QVQLVESGGGLVQAGGSLRLSCAASGRTFYDNAMGWYRQAPGNERELVAAITVRGGSTRYADSVKGRFTISRDNAKNTVYLQLNSLKPEDTAVYYCAATQTPYRYHYDYWGQGTQVTVSS,high polyreactivity
3,QVQLVESGGGLVQAGGSLRLSCAASGSTFDHNVMGWYRQAPGKERELVAAISGSGGSTYYADSVKGRFTISRDNAKNTVYLQMNSLKPEDTAVYYCAARYYVGHRGYYSWGQGTQVTVSS,high polyreactivity
4,QVQLVESGGGLVQAGGSLRLSCAASGRIFYYYAMGWYRQAPGKERELLAAITRGGGTYYADSVKGRFTISRDNAKNTVYLQMNSLKPEDTAVYYCAKRGPPESHHPYRYRFDYWGKGTQVTVSS,low polyreactivity
5,QVQLVESGGGLVQAGGSLRLSCAASGSIFFSYAMGWYRQARGKERELVAAISTSGGNTYYADSVKGRFTISRDNAKNTVYLQMNSLKPEDTAVYYCNALYIYFYNYLTMDYWGQGTQVTVSS,low polyreactivity
6,QVQLVESGGGLVQAGGSLRLSCAASGSTFKFYAMGWYRQAPGKERELVAAISRSGGSTYYADSVKGRFTLSRDNAKNTVYLQMNSLKPEDTAGYYCAAERTLKSDYWGQGTQVTVSS,high polyreactivity
7,QVQLVESGGGLVQAGGSLRLSCAASGRTMYRNAMGWYRQAPGKERELVDDISRSGGSTFYADSVKGRFTISRDNAKNTVYLQMNSLKPEDTAVYYCNADYQEYVSGYDYWGQGTQVTVSS,high polyreactivity
8,QVQLVESGGGLVPAGGSLRLSCAASGRTFYTNSMGWYRQAPGKERELVAAITYSGGSTYYADSVKWRFTISRDNAKNTVYLHMNSLKPEDTAVYYCAADYRAPLDYWGQGTQVTVSS,low polyreactivity
9,QVQLVESGGGLVQAGGSLRLSCAASGLIFRAYAMGWSRPAPGKERELVAAITSSSGSTYYADSVKGRFTISRDNAKNTVYLQMNSLTPEDTAVYYCNAYSTFGWYDYWGQGTQVTVSS,low polyreactivity
10,QVQLVESGGGLVQAGGSLRLSSAASGRTSLAYAMGWYRQAPGKERELVAVITSGGNTNYADSVKGRFTISRDNAKNTVYLQMNSLKPEDTAVYYCNKKKRWQWYSESVLDYLGFYSWGQGTQVTVSS,low polyreactivity
11,QVQLVESGGGLVQAGGSLRLSCAASGRTLVRYTMGWYRQAPGKERELVASISQRGGTTYYADSVKGRFTISRDNAKNTVYLQMNSLKPEDTAVYYCNKASVSGSSGGGYESWGQGTQVTVSS,low polyreactivity
12,QVQIVESGGGLVQAGGSLRLSCAASGFIFGANAMGWYRQAPGKEREFVAAISSSGGRYELRRSVKGRFTISRDKAKNTVYLQMNSLKPEDTAVYYCATPYPTGRPRHYYWGQGTQVTVSS,high polyreactivity
13,KVQLVESGGGLVQAGGSLRLSCAASGSIFIGYAMGCYRQAPGKERELVAAISYRGGSTYYADSVKGRFTISRDNAKNTVYLQMNSLKPEDTAVYYCATVLPVQQTRLGYSSRYYYWGQGTQVTVSS,high polyreactivity
14,QVQLVESGGGLVQAGGSLRLSCAASGSIFYRNRMGWYRQAPGKERELVAAIRYSGDNTYYADSVKGRFTISRDNAKNTVYLQMNSLKPEDTAVYYCAADFPDYEYWGQGTQVTVSS,high polyreactivity
15,QVQVVESGAGLVQAGGSLRISCAASGRNFVANAMGWYRQAPGKERELVAAISIIGAGTYYADSVKGRFTISRDNAKITVYLQMNSLKPEDTAVYYCATQYGWYIFGYWGQGSQVTVSS,high polyreactivity
16,HAQLQESGGGLVQAGGSLRRSCAASGSIFRFSRMGWYRRAPGKERELVASIGFGSITYYADRVKGRFTISRDNANNTVYLQMNSLKPEDTAVYYCAVQVQDESWLDYWGQGTQVTVSC,low polyreactivity
17,QVQLVESGGALVQAGGSLRLSCAASGYTSILYAMGWYRQAPGKEMELVASITKSGDDTYYADSVKGRFTISRDNAKNTVYLQMNSLKPEDTAVYYCAAEYTYGDYSYVWYDYWGQGTQVTVSS,high polyreactivity
18,QVQLVESGGGLVQAGGSLRLSCAASGSTFLRNVMGWYRQAPGKERELVAAISSRGGSTHYADSVKGRFTISRDNAKNTDYLQMNSLKPEDTAVYYCNAERTAAQYVRAAYDYWGQGTQVTVSS,low polyreactivity
19,QVHLVESGGGLVKAGGSLRLSCPASGFIFTLYAMGWYRQPPGKERELVASIRGSGGNTYYADSVKGRFTISRDNAKNTVYLQMNSLKPEDTAVYYCAAGYPYYYWTPYYYWGQGTQVTVSS,high polyreactivity
20,QVQLVESGGGLVQAGGSLRLSCAASGIIFSKNTMGWYRQAPGKERELVAAISRSGGTSTYYADSVKGRFTISRDNAKNTVYLQMNSLKPEDTAVYYCAAGVPRIGGYYYWGQGTQVTVSS,low polyreactivity
21,QVQLVESGRGLVQAGGSLRLSCAASGSIFRRYAMGWYRQAPGKERELVAGITRSGGNTYYADSVKGRFTISRDNAKNTVYLQMNSLKPEDTAVYYCAARHRYNIRTYDAWGQGTQVTVSS,high polyreactivity
